Drawing on patent US20100204147A1, “Methods For Delivering Thymosin Beta 4, Analogues, Isoforms and Other Derivatives” (REGENERX BIOPHARMACEUTICALS, INC., priority 2003, published 2010), this text covers degree of factor XIIIa-mediated incorporation after 4 hours (spectrophotometric) (moles per mole) and apparent Michaelis constant (Km) for the reaction of incorporation by factor XIIIa for two substances.

Assay in all cases: cell-based or functional assay
Assay [1] has as its target Fibrin (made from human fibrinogen with bovine thrombin) (human) (UniProt P02671).
Assay [2] concerns the target Human fibrinogen depleted of plasminogen, fibronectin and von Willebrand factor (human) (UniProt P02671).
Assay [3] deals with Recombinant γ-module comprising residues 148-411 of the human fibrinogen γ chain (human) (UniProt P02679).

Consider “FITC-labeled thymosin β4 (from UniProt P62328 2-44) (peptide)”, for which the degree of factor XIIIa-mediated incorporation after 4 hours (spectrophotometric) (moles per mole) is 0.4 in assay [1] and 0.2 in assay [2].

For the substance “Synthetic thymosin β4 (from UniProt P62328 2-44) (peptide)”, the apparent Michaelis constant (Km) for the reaction of incorporation by factor XIIIa in assay [3] worked out at 183 µM.
